Experimental data published in article PMC9156947, “Identification of STAU1 as a regulator of HBV replication by TurboID-based proximity labeling” (iScience, 2022).

Columns and labels:
C10-DDB1 = target: T1, C10-DDB1 (UniProt Q16531 1-1140); test: split reporter (BiFC, NanoBiT); tripartite Nanoluc luciferase: C10-tagged and N8-tagged proteins co-transfected with a plasmid expressing Nano1-7 into HepG2 cells; luciferase activity measured 48 h post-transfection; conditions: partners not purified
T1 construct: also called wild type DDB1; source: HepG2, transfected, in cells; not shown: C10 tag (tripartite NanoLuc), N-terminal, kept

C10-STAU1 = target: T2, C10-STAU1 (UniProt O95793 1-577); test: as above; conditions: partners not purified
T2 construct: also called wild type STAU1; source: HepG2, transfected, in cells; not shown: C10 tag (tripartite NanoLuc), N-terminal, kept
T2 sequence (looked up): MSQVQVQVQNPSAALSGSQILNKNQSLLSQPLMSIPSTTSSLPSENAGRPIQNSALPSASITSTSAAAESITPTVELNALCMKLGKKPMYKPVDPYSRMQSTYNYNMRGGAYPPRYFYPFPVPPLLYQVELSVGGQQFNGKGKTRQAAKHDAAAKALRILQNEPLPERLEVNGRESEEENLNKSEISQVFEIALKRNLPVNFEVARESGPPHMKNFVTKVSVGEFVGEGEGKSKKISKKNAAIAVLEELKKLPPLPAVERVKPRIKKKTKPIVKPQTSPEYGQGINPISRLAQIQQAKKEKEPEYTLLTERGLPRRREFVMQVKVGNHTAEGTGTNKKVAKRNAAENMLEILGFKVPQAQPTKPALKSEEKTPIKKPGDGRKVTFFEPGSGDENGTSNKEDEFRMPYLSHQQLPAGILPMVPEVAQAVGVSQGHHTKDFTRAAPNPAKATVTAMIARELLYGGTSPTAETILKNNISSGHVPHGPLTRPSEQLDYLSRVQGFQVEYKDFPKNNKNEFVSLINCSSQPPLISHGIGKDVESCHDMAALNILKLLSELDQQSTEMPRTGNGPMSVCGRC

T1 sequence (Q16531 whole entry): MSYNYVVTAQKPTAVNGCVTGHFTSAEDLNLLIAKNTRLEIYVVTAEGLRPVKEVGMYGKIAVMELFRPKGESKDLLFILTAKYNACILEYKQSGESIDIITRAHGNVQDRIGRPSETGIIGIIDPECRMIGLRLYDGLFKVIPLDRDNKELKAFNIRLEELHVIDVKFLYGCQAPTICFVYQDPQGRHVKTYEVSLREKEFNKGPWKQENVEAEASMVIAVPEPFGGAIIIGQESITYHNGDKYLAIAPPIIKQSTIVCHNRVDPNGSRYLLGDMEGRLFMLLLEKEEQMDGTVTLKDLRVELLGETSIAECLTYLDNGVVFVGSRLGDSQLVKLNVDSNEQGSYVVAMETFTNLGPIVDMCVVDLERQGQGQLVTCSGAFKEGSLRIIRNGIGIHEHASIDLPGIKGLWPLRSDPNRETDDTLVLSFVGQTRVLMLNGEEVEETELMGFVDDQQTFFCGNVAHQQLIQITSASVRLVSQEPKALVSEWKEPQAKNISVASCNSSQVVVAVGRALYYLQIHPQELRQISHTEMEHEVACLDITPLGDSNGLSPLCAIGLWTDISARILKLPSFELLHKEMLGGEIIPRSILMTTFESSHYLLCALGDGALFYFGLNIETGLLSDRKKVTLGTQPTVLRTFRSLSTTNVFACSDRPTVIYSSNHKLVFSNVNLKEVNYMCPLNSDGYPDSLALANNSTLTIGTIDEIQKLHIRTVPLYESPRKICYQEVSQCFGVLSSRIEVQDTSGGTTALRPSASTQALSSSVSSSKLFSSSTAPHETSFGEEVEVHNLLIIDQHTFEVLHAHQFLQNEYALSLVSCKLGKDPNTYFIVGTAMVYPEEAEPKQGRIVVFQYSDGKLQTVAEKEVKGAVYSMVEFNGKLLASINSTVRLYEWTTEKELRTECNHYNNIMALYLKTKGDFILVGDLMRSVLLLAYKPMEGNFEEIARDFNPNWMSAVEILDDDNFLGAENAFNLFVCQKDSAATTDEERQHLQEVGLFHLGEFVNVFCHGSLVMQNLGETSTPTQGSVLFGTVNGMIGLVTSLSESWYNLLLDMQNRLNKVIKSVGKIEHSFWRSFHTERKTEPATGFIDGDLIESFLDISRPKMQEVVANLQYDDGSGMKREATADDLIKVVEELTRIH

Binder | fold luminescence over the controls (C10-DDB1) | fold luminescence over the controls (C10-STAU1) | fold luminescence over the control (C10-STAU1)
N8-HBx (natural protein, also called X protein; wild type HBx; source: HepG2, transfected, in cells; not shown: N8 tag (tripartite NanoLuc), N-terminal, kept) MAARLCCQLDPARDVLCLRPVGAESRGRPFSGSLGTLSSPSPSAVPTDHGAHLSLRGLPVCAFSSAGPCALRFTSARRMETTVNAHQILPKVLHKRTLGLSAMSTTDLEAYFKDCLFKDWEELGEEIRLKVFVLGGCRHKLVCAPAPCNFFTSA | ~200 fold | 28 fold | –
N8-TAF10 (natural protein, source: transfected cells (tripartite NanoLuc system), in cells) not shown | – | – | > 20 fold
